From the supplement of paper PMC10126150
± gives the standard deviation of the averaged measurements.

Test system: ATP
Experiment: switch fluorescence ratio, 500 uM ATP over buffer (Cy3 cluster intensity, sum of 5 cycles each) (fold (ratio)); higher = stronger signal-on switching upon ATP binding; sequences stand for … in TCGTCGGCAGCGTCAGATGTGTATAAGAGACAGTTTTTTTTTTTTTTTTTTTTTTTTT…TC
Conditions: aptamer strand: ATP DNA aptamer (quencher-CACCTGGGGGAGTATTGCGGAGGAAGG + anchor), 100 nM annealed; ATP concentration: 500 uM
How it was run: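 Five buffer/ATP imaging cycles were run on Cy3-labelled switching-strand clusters on a modified Illumina MiSeq flow-cell, with NaOH stripping and re-annealing between cycles. In each cycle, clusters annealed to 100 nM quencher-labelled ATP aptamer were imaged in selection buffer, then after 15 min with 500 uM ATP at 22 °C. Per cluster, the fluorescence ratio is summed target-cycle over summed buffer-cycle Cy3 intensity, averaged per switch-domain sequence. Only clusters within 100-1000 RFU were kept.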
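Note: ATP exposure 15 min at 22 °C before imaging.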

| Sequence | switch fluorescence ratio |
| --- | --- |
| CGGATGGAGT | 0.99128 ± 1.1e-05 |
| CAGTTTAATG | 1.014 ± 0.0015 |
| GGTTGCGTCG | 1.01 ± 0.014 |
| GTCCATTTTG | 1.01 ± 0.064 |
| TTATAAACCT | 1.99 ± 1.4 |
| AGTGTAAAAA | 1.04 ± 0.078 |
| GGTCATTGTT | 0.9635 ± 0.0031 |
| CCTGGATTAG | 1.05 ± 0.041 |
| GGGGGGCCCG | 1.35 ± 0.45 |
| CGTACTTCCG | 1.019 ± 0.0053 |
| CGGGAGCGGA | 0.995 ± 0.018 |
| GGGCCAGGGA | 1 ± 0.024 |
| AGGGGAAAGT | 0.954 ± 0.052 |
| TTTCATTCTT | 1 ± 0.033 |
| CGGGTGCGGG | 1.02 ± 0.038 |
| ATTGAACGTT | 0.979 ± 0.015 |
| GGTGAGTCGG | 0.9925 ± 0.0029 |
| GTTCTTGTGT | 1.01 ± 0.023 |
| TAGGGGCTTC | 0.979 ± 0.018 |
| GTAAAAAAAG | 1.09 ± 0.086 |
| GAACGGCGGA | 0.9811 ± 0.002 |
| TTTTGTATAA | 1.02 ± 0.02 |
| ACTATATTTG | 1.04 ± 0.022 |
| GGGACCGACT | 1.05 ± 0.016 |
| AGATTGTATG | 1.01 ± 0.039 |

| Sequence | switch fluorescence ratio |
| --- | --- |
| TCGTGCATGG | 1.046 ± 0.008 |
| TTCTACTTTG | 1.035 ± 0.0074 |
| TGCGCCTGGG | 1.03 ± 0.013 |
| CCTGGCTTGA | 0.996 ± 0.016 |
| TATCGTGATG | 0.992 ± 0.039 |
| AGGTTGAACG | 0.985 ± 0.046 |
| GCGGCTATGG | 1.01 ± 0.019 |
| TGAAAGATTA | 1.01 ± 0.029 |
| TGATGGAGGC | 1.01 ± 0.013 |
| GATGCCTGGA | 1.02 ± 0.086 |
| CATATGGGGA | 0.982 ± 0.011 |
| TTGAAGGGGT | 1.08 ± 0.1 |
| AAAAAGTCTT | 1 ± 0.015 |
| AAAACTTATG | 1.026 ± 0.0033 |
| GCTAATTGCA | 1.03 ± 0.057 |
| ATATCAAGGA | 1 ± 0.029 |
| ACTTTGGTTT | 0.993 ± 0.031 |
| GGTGACCTTG | 0.9891 ± 0.0037 |
| TCATACTCAA | 1.4 ± 0.018 |
| TCAAATTTTA | 1.02 ± 0.031 |
| CGTTGGTACG | 1 ± 0.022 |
| TAACCAGTGG | 1.07 ± 0.021 |
| TATGGTCAG | 1.02 ± 0.042 |
| TAACCTTAGC | 1.29 ± 0.041 |
| GTTGGTGGGA | 0.973 ± 0.025 |

| Sequence | switch fluorescence ratio |
| --- | --- |
| GAGGGCGGGA | 1.01 ± 0.047 |
| GTAATCATCG | 0.9847 ± 0.0073 |
| GGTGTGCATC | 1 ± 0.018 |
| AGTTTTCGTG | 0.99 ± 0.03 |
| CACGTGGGGG | 1.007 ± 0.006 |
| TAGGAATCCA | 0.999 ± 0.012 |
| GCGTTCGGGC | 1 ± 0.029 |
| CGGTTGGTGA | 0.974 ± 0.035 |
| GGCAGGGGTT | 1 ± 0.023 |
| TTTTTTCGGA | 1.01 ± 0.073 |
| GTGGGTGGTC | 1.02 ± 0.013 |
| TAAATTATTC | 1.04 ± 0.037 |
| CGTTTTTGTA | 0.99 ± 0.015 |
| ATAGAGCTTT | 1.07 ± 0.085 |
| CTGCGTCTTT | 1.03 ± 0.015 |
| CCTGTGCCCG | 1.01 ± 0.041 |
| CCCCCGGTTT | 1.12 ± 0.044 |
| AAGTAGTGCG | 1.01 ± 0.041 |
| ATGTACTTTA | 1.06 ± 0.028 |
| AAGGATGGCC | 1.01 ± 0.021 |
| AGTGCGCTAT | 1.03 ± 0.01 |
| GACGGGCTGT | 0.985 ± 0.029 |
| TTATTATTT | 0.994 ± 0.11 |
| TTTACTTACG | 1.22 ± 0.18 |
| AATAATTGAC | 1.099 ± 0.0086 |

| Sequence | switch fluorescence ratio |
| --- | --- |
| ATGCAGATTA | 1.023 ± 0.0051 |
| AAGATCAATA | 0.9967 ± 0.0044 |
| GGGGGATGCG | 1 ± 0.048 |
| ACGTTGGTAA | 1.02 ± 0.032 |
| GCCGAATCTG | 1 ± 0.02 |
| GGGGGGTAAA | 1.04 ± 0.075 |
| GACGGCTTGG | 1.02 ± 0.025 |
| GGGGAGTGGG | 0.989 ± 0.051 |
| GATATCACTG | 1.02 ± 0.016 |
| GGTTGAGGGA | 0.979 ± 0.016 |
| TTTTACTCGA | 1.03 ± 0.014 |
| GAAATTCCGC | 1.27 ± 0.088 |
| CTGGTTATTT | 1.04 ± 0.076 |
| GAGAGGGTTT | 1 ± 0.011 |
| GCTAGAGTGC | 0.979 ± 0.021 |
| GAAGGAGGGA | 0.987 ± 0.018 |
| AGGAGAATCT | 1 ± 0.025 |
| TTTCGTGGTG | 0.997 ± 0.031 |
| TTTTTTGAAG | 0.997 ± 0.03 |
| ATAGGTCTCG | 1 ± 0.031 |
| GAAGGGGATA | 1.01 ± 0.036 |
| CCTTAGGTTT | 1.002 ± 0.0011 |
| CTTGACATA | 1.03 ± 0.011 |
| GATGAGTTGT | 0.961 ± 0.021 |
| AAGGTCGTCA | 0.9613 ± 0.0023 |
